Assay [1] concerns the target T1, interleukin 18 binding protein (IL-18BP) (UniProt O95998 31-194).
T1 sequence (looked up): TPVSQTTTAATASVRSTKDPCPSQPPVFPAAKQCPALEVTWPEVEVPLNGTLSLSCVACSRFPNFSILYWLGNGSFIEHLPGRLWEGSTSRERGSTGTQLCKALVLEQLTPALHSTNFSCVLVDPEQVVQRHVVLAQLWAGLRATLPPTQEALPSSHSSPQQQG
The experiment in a line: cell-based or functional assay.

Assay [2] deals with T2, IL-18 receptors on HEK-Blue IL-18 reporter cells (UniProt Q13478 19-541; O95256 20-599, limits assumed).
T2 sequence (looked up) 1: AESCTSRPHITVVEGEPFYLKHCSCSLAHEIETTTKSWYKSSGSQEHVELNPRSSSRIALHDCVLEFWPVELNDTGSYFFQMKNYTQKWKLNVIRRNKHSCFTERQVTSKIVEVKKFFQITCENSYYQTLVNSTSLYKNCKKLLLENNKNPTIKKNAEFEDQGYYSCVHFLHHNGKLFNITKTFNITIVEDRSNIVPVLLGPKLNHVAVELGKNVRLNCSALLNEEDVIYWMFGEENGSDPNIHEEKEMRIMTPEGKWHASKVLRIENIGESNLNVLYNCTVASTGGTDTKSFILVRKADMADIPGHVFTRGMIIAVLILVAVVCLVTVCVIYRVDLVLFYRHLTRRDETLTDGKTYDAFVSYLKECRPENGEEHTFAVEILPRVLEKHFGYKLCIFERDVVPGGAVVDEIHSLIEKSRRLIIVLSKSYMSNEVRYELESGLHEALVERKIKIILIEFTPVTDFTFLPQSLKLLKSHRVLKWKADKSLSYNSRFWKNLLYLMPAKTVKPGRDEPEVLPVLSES
T2 sequence (looked up) 2: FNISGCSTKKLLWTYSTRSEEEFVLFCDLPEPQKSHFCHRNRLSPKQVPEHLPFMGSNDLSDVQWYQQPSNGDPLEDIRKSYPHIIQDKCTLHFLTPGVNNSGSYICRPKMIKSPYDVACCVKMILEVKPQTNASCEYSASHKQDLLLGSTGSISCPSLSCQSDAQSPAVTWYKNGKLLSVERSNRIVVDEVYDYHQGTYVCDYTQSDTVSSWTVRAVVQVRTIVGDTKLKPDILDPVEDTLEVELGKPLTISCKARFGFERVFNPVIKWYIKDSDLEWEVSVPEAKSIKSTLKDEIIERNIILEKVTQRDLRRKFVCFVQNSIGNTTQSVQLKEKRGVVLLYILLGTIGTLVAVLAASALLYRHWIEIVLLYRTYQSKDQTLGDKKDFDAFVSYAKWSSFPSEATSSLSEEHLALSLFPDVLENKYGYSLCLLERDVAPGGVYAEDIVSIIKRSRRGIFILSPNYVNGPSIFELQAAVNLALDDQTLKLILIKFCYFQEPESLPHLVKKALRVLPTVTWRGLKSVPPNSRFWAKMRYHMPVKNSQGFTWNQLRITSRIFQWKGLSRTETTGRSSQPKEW
As to the kind of experiment: cell-based or functional assay.

B1: IL-18 variant K53D, S55T, H109I (ligand)
chain: YFGKLESKLSVIRNLNDQVLFIDQGNRPLFEDMTDSDMRDNAPRTIFIISMYDDTQPRGMAVTISVKSEKISTLSSENKIISFKEMNPPDNIKDTKSDIIFFQRSVPGIDNKMQFESSSYEGYFLASEKERDLFKLILKKEDELGDRSIMFTVQNED
On to B1, for which, in assay [1], the “HEK-Blue activity, +100 nM BP, DF-10000” value turned out to be 0.12; the “HEK-Blue activity, +100 nM BP, DF-100,000” value is 0.09; the “HEK-Blue activity, +100 nM BP, DF-1,000,000” value stood at 0.09; the “Ratio (-BP/+BP), DF-10000” value stood at 1.1. Moreover, in assay [1], the “Ratio (-BP/+BP), DF-100,000” value was 0.97 and the “Ratio (-BP/+BP), DF-1,000,000” value is 0.98. In addition, in assay [2], the “HEK-Blue activity, No BP, DF-10000” value is 0.13; the “HEK-Blue activity, No BP, DF-100,000” value stood at 0.09; the “HEK-Blue activity, No BP, DF-1,000,000” value stood at 0.08.

B2: IL-18 variant K53D, S55E (ligand)
chain: YFGKLESKLSVIRNLNDQVLFIDQGNRPLFEDMTDSDMRDNAPRTIFIISMYDDEQPRGMAVTISVKSEKISTLSSENKIISFKEMNPPDNIKDTKSDIIFFQRSVPGHDNKMQFESSSYEGYFLASEKERDLFKLILKKEDELGDRSIMFTVQNED
With B2, in assay [1], the “HEK-Blue activity, +100 nM BP, DF-10000” value amounted to 0.11; the “HEK-Blue activity, +100 nM BP, DF-100,000” value was 0.09; the “HEK-Blue activity, +100 nM BP, DF-1,000,000” value was found to be 0.08; the “Ratio (-BP/+BP), DF-10000” value is 1.22. For the same molecule, in assay [1], the “Ratio (-BP/+BP), DF-100,000” value came out at 1.07 and the “Ratio (-BP/+BP), DF-1,000,000” value worked out at 1.08. In assay [2], the “HEK-Blue activity, No BP, DF-10000” value came to 0.13; the “HEK-Blue activity, No BP, DF-100,000” value is 0.09; the “HEK-Blue activity, No BP, DF-1,000,000” value was 0.09.

B3: IL-18 variant K53H, S55G (ligand)
chain: YFGKLESKLSVIRNLNDQVLFIDQGNRPLFEDMTDSDMRDNAPRTIFIISMYHDGQPRGMAVTISVKSEKISTLSSENKIISFKEMNPPDNIKDTKSDIIFFQRSVPGHDNKMQFESSSYEGYFLASEKERDLFKLILKKEDELGDRSIMFTVQNED
Turning to B3, in assay [1], the “HEK-Blue activity, +100 nM BP, DF-10000” value turned out to be 0.12; the “HEK-Blue activity, +100 nM BP, DF-100,000” value was found to be 0.09; the “HEK-Blue activity, +100 nM BP, DF-1,000,000” value stood at 0.08; the “Ratio (-BP/+BP), DF-10000” value amounted to 1.08. Further, in assay [1], the “Ratio (-BP/+BP), DF-100,000” value is 1.04 and the “Ratio (-BP/+BP), DF-1,000,000” value turned out to be 1.02. Further, in assay [2], the “HEK-Blue activity, No BP, DF-10000” value was 0.13; the “HEK-Blue activity, No BP, DF-100,000” value stood at 0.1; the “HEK-Blue activity, No BP, DF-1,000,000” value was 0.08.

B4: IL-18 variant K53H, S55M (ligand)
chain: YFGKLESKLSVIRNLNDQVLFIDQGNRPLFEDMTDSDMRDNAPRTIFIISMYHDMQPRGMAVTISVKSEKISTLSSENKIISFKEMNPPDNIKDTKSDIIFFQRSVPGHDNKMQFESSSYEGYFLASEKERDLFKLILKKEDELGDRSIMFTVQNED
On to B4, for which, in assay [1], the “HEK-Blue activity, +100 nM BP, DF-10000” value is 0.12; the “HEK-Blue activity, +100 nM BP, DF-100,000” value worked out at 0.09; the “HEK-Blue activity, +100 nM BP, DF-1,000,000” value worked out at 0.09; the “Ratio (-BP/+BP), DF-10000” value amounted to 1.12. In assay [1], the “Ratio (-BP/+BP), DF-100,000” value was determined as 1.03 and the “Ratio (-BP/+BP), DF-1,000,000” value worked out at 1.09. In assay [2], the “HEK-Blue activity, No BP, DF-10000” value came out at 0.13; the “HEK-Blue activity, No BP, DF-100,000” value was 0.1; the “HEK-Blue activity, No BP, DF-1,000,000” value stood at 0.09.

B5: IL-18 variant K53T, S55G, P107A, H109Q (ligand)
chain: YFGKLESKLSVIRNLNDQVLFIDQGNRPLFEDMTDSDMRDNAPRTIFIISMYTDGQPRGMAVTISVKSEKISTLSSENKIISFKEMNPPDNIKDTKSDIIFFQRSVAGQDNKMQFESSSYEGYFLASEKERDLFKLILKKEDELGDRSIMFTVQNED
For the molecule B5, in assay [1], the “HEK-Blue activity, +100 nM BP, DF-10000” value was 0.12; the “HEK-Blue activity, +100 nM BP, DF-100,000” value came to 0.16; the “HEK-Blue activity, +100 nM BP, DF-1,000,000” value came to 0.12; the “Ratio (-BP/+BP), DF-10000” value came to 1.1. Further, in assay [1], the “Ratio (-BP/+BP), DF-100,000” value is 0.63 and the “Ratio (-BP/+BP), DF-1,000,000” value was found to be 0.87. In assay [2], the “HEK-Blue activity, No BP, DF-10000” value turned out to be 0.13; the “HEK-Blue activity, No BP, DF-100,000” value came out at 0.1; the “HEK-Blue activity, No BP, DF-1,000,000” value was found to be 0.11.

These data come from US20240182536A1 (MURAL ONCOLOGY, published 2024).
